Reference: article PMC6521584, “Sucrose 6^F-phosphate phosphorylase: a novel insight in the human gut microbiome” (Microbial Genomics, 2019)

Tested on: O=P(O)(O)OC[C@H]1O[C@@](CO)(O[C@H]2O[C@H](CO)[C@@H](O)[C@H](O)[C@H]2O)[C@@H](O)[C@@H]1O
Test: purified protein
Assay type: biochemical, Mediterraneibacter gnavus
Conditions: phosphorolysis, 100 mM sodium phosphate buffer as co-substrate, pH 6.0, 40 °C, 1.0-20 mM substrate

RgSPP (sucrose 6^F-phosphate phosphorylase; formerly SucP) (Mediterraneibacter gnavus)
Km: 1700 µM
kcat: 740 s⁻¹
kcat/Km: 435000 M⁻¹ s⁻¹
